Key:
[1] = target: T1, biotinylated mouse FcRn protein (mouse, UniProt Q61559 22-297, biotin (biotinylated; site not stated)); assay: BLI; biotinylated mouse FcRn (1.0 ug/mL) immobilised on streptavidin biosensor tip; MDTCS-Fc 0.625 to 20 nM in solution; 25 mM acetate, 25 mM NaH2PO4, 150 mM NaCl, 0.01% Tween-20, pH 6.0; association 5 min, dissociation 5 min; Octet Qke; biosensors without FcRn subtracted; settings: both partners purified
T1 construct: neonatal Fc receptor (FcRn), mouse; also called mouse neonatal Fc-receptor; source: bought: Acro Biosystems
T1 sequence (looked up): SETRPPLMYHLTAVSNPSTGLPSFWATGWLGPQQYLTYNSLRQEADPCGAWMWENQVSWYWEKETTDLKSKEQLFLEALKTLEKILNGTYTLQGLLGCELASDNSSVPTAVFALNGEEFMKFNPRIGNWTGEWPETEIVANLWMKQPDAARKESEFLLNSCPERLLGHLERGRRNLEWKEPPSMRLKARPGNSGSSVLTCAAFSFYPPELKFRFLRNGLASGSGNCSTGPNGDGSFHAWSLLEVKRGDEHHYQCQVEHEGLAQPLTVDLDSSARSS

[2] = target: T1, biotinylated mouse FcRn protein; assay: as above; settings: both partners purified; remark: listed apart in the source

B1: MDTCS-Fc (Fc fusion)
chain: AAGGILHLELLVAVGPDVFQAHQEDTERYVLTNLNIGAELLRDPSLGAQFRVHLVKMVILTEPEGAPNITANLTSSLLSVCGWSQTINPEDDTDPGHADLVLYITRFDLELPDGNRQVRGVTQLGGACSPTWSCLITEDTGFDLGVTIAHEIGHSFGLEHDGAPGSGCGPSGHVMASDGAAPRAGLAWSPCSRRQLLSLLSAGRARCVWDPPRPQPGSAGHPPDAQPGLYYSANEQCRVAFGPKAVACTFAREHLDMCQALSCHTDPLDQSSCSRLLVPLLDGTECGVEKWCSKGRCRSLVELTPIAAVHGRWSSWGPRSPCSRSCGGGVVTRRRQCNNPRPAFGGRACVGADLQAEMCNTQACEKTQLEFMSQQCARTDGQPLRSSPGGASFYHWGAAVPHSQGDALCRHMCRAIGESFIMKRGDSFLDGTRCMPSGPREDGTLSLCVSGSCRTFGCDGRMDSQQVWDRCQVCGGDNSTCSPRKGSFTAGRAREYVTFLTVTPNLTSVYIANHRPLFTHLAVRIGGRYVVAGKMSISPNTTYPSLLEDGRVEYRVALTEDRLPRLEEIRIWGPLQEDADIQVYRRYGEEYGNLTRPDITFTYFQPKPRQAEPKSCDKTHTCPPCPAPEFLGGPSVFLFPPKPKDTLYITREPEVTCVVVDVSQEDPEVQFNWYVDGVEVHNAKTKPREEQFNSTYRVVSVLTVLHQDWLNGKEYKCKVSNKGLPSSIEKTISKAKGQPREPQVYTLPPSQEEMTKNQVSLTCLVKGFYPSDIAVEWESNGQPENNYKTTPPVLDSDGSFFLYSRLTVDKSRWQEGNVFSCSVMHEALHNHYTQKSLSLSL
- Kd [1]: 0.144 ± 0.022 nM
- koff [2]: 1.96e-06 s⁻¹
